Molecular target: BRD4-BD1 (recombinant, NMR and fluorescence anisotropy) (UniProt O60885)
Experiment: fluorescence polarisation

Ki: > 3 mM
Substance: Twist-K73ac/K76ac peptide (residues 68-79) (from UniProt Q15672 68-79)

— PMC4004960
